The target of assay [1] is SARS-CoV-2 nucleocapsid (N) protein, recombinant, residues 1-419 (SARS-CoV-2, UniProt P0DTC9 1-419).
Assay [2] addresses T1, truncated N-terminal domain (NTD) of SARS-CoV-2 N protein (SARS-CoV-2, UniProt P0DTC9 44-180).
T1 construct: domain: N-terminal domain (NTD)
Description: BLI, BA-MBP-Sso.E1 on streptavidin probes. (In general: Biolayer interferometry detects binding as a change in optical thickness at a sensor tip.)

Assay [3] addresses T2, truncated C-terminal domain (CTD) of SARS-CoV-2 N protein (SARS-CoV-2, UniProt P0DTC9 247-364).
T2 construct: domain: C-terminal domain (CTD)
In words: BLI, BA-MBP-Sso.E2 on streptavidin probes.

B1: Sso.E1 (rcSso7d binder against SARS-CoV-2 N protein) (designed binder)
chain: MATVKFTYQGEEKQVDISKIKIVRRGGQWISFWYDEGGGAYGAGYVSEKDAPKELLQMLEKQ
Take B1: the Kd (commonly a measure of binding affinity in units of concentration) in assay [1] came to 3.2 nM.

B2: BA-MBP-Sso.E1 (Sso.E1 fused to biotin and maltose binding protein) (designed binder, not shown: small tags and cut ends; large carriers)
chain: B1 chain
notes: also called reporter reagent
For B2, in assay [2], the binding result is listed as “no binding”.

B3: Sso.E2 (rcSso7d binder against SARS-CoV-2 N protein) (designed binder)
chain: MATVKFTYQGEEKQVDISKIKNVGRWGQIIDFDYDEGGGAIGIGAVSEKDAPKELLQMLEKQ
Regarding B3, in assay [1], the Kd worked out at 4.2 nM.

B4: BA-MBP-Sso.E2 (Sso.E2 fused to biotin and maltose binding protein) (designed binder)
chain: B3 chain
Consider B4, for which the binding result in assay [3] was “no binding”.

For the origin of these results see patent US20230375531A1 (MIT, published 2023).
